Laboratory results published in paper PMC6990103 (Journal of molecular biology, 2019).

How the values were obtained:
[1] = molecular target: T1, recombinant SUDV Boniface 1976 NP (Sudan ebolavirus, Boniface 1976, UniProt Q9QP77); assay: far-Western, overlay or dot blot; conditions: both partners purified
T1 construct: also called SUDV NP; full-length NP polymers

[2] = molecular target: T2, nluc-NP612 fusion protein, RESTV (Reston ebolavirus, Reston 1989 (isolate …, UniProt Q8JPY1)); assay: far-Western, overlay or dot blot; conditions: both partners purified
T2 construct: also called RESTV NP612 C-terminus; source: E. coli BL21(DE3)+pRARE, cytosolic, purified (IMAC, SEC)

[3] = molecular target: T3, nluc-NP612 fusion protein, BDBV (Bundibugyo ebolavirus, Uganda 2007, UniProt B8XCM7); assay: far-Western, overlay or dot blot; conditions: both partners purified
T3 construct: also called BDBV NP612 C-terminus; source: E. coli BL21(DE3)+pRARE, cytosolic, purified (IMAC, SEC)

recombinant BDBV 2007 NP [4] = molecular target: T4, recombinant BDBV 2007 NP (Bundibugyo ebolavirus (BDBV)., UniProt B8XCM7); assay: far-Western, overlay or dot blot; conditions: both partners purified
T4 construct: also called BDBV NP

[5] = molecular target: T5, nluc-NP612 fusion protein, SUDV (Sudan ebolavirus, Boniface 1976 …, UniProt Q9QP77); assay: far-Western, overlay or dot blot; conditions: both partners purified
T5 construct: also called SUDV NP612 C-terminus; source: E. coli BL21(DE3)+pRARE, cytosolic, purified (IMAC, SEC)

[6] = molecular target: T6, recombinant TAFV IC1 1994 NP (Tai Forest ebolavirus (TAFV)., UniProt B8XCN6); assay: far-Western, overlay or dot blot; conditions: both partners purified
T6 construct: also called TAFV NP

[7] = molecular target: T7, nluc-NP612 fusion protein, TAFV (Tai Forest ebolavirus, IC1 1994, UniProt B8XCN6); assay: far-Western, overlay or dot blot; conditions: both partners purified
T7 construct: also called TAFV C-terminus; source: E. coli BL21(DE3)+pRARE, cytosolic, purified (IMAC, SEC)

[8] = molecular target: T1, recombinant SUDV Boniface 1976 NP; assay: ELISA; conditions: both partners purified
[9] = molecular target: T2, nluc-NP612 fusion protein, RESTV; assay: ELISA; conditions: both partners purified
[10] = molecular target: T3, nluc-NP612 fusion protein, BDBV; assay: ELISA; conditions: both partners purified
recombinant BDBV 2007 NP [11] = molecular target: T4, recombinant BDBV 2007 NP; assay: ELISA; conditions: both partners purified
[12] = molecular target: T8, NP of TAFV IC1 1994 in live virus preparation (Tai Forest ebolavirus (TAFV)., UniProt B8XCN6); assay: ELISA; conditions: one partner purified
T8 construct: also called TAFV (virus)

[13] = molecular target: T5, nluc-NP612 fusion protein, SUDV; assay: ELISA; conditions: both partners purified
[14] = molecular target: T6, recombinant TAFV IC1 1994 NP; assay: ELISA; conditions: both partners purified
[15] = molecular target: T9, NP of SUDV Boniface 1976 in live virus preparation (Sudan ebolavirus, Boniface 1976, UniProt Q9QP77); assay: ELISA; conditions: one partner purified
T9 construct: also called SUDV (virus)

[16] = molecular target: T7, nluc-NP612 fusion protein, TAFV; assay: ELISA; conditions: both partners purified

Measured: binding result

B1: sdAb ZE alkaline phosphatase fusion (VHH)
VHH: QVQLQESGGGLVQPGGSLRLSCTASGFTLAEYGVGWFRQAPGKERELVALIAVGGTTHSIDSVKGRFTISRDNMKNTVYLQMNSLNVEDTAVYYCNAYSSAYDRNYWGQGTQVTVSS
notes: also called sdAb-AP fusion of ZE; source: previously generated [9], stored at -80 °C
binds: [1] | [2] | [3] | recombinant BDBV 2007 NP [4] | [5] | [6] | [7]

B2: sdAb ZE, biotinylated (from pecan126) (VHH)
VHH: QVQLQESGGGLVQPGGSLRLSCTASGFTLAEYGVGWFRQAPGKERELVALIAVGGTTHSIDSVKGRFTISRDNMKNTVYLQMNSLNVEDTAVYYCNAYSSAYDRNYWGQGTQVTVSS
notes: also called anti-Ebola virus sdAb; oriented sdAb captor; source: E. coli HBV88, pecan126 preparations
binds: [8] | [9] | [10] | recombinant BDBV 2007 NP [11] | [12] | [13] | [14] | [15] | [16]
